Results taken from the domain aggregation screens of Martell et al. (2025).

Experiment: soluble fraction after stress (log2 fold change); higher = more stays soluble; pooled small domains, quantitative proteomics
Conditions: stress: 50 degC
Method in brief: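 After stress at 50°C, the amount of each protein still soluble was measured. This was done on pooled custom libraries of small protein domains, using high-throughput quantitative proteomics. The figure given is a base-two log fold change and stands for aggregation propensity, with higher values meaning more protein stays in solution.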

Sequence	soluble fraction (log2)
HMTTHERHEIIELLRQVGDPMRPKEISEALGKPSGAIRFLLSKLTEEGAIKKTGYGQYTYIP	-0.359
HMSDILALMPGTIKQILVAPGDSVKRGQTVIIMESMKMELTIAAHRDGVVKRIPVEQGGQVEKGMRLLELE	0.256
HMEKAKVPSVIGMTEANAKRTIRDAGFKVGRVTRVESEAYDKGKVIEQQYEAGSELEKKKPISIVVSKGKK	-0.162
HMTPDLSEFKERLRQILPGEPIEVRTANDGIVLSGTVTSIAALDRALDLAERYAPDKVSNLLSVG	0.0882
HMSYTYPVARLNHIKGKWYVLVSVPAHLRHLFPNQRDLRRSTGTDDESLAKRKQHALAQEIYDLFD	-0.468
HMVLELRIGQIVRGVLLQLVGEREGIVSVGGVPVRARLEAEIPLGRGVMLQVQPGSDANNILLKPV	-0.515
HMAVDPSVLTRRERQALAWIARGLSNKEVARGLNLAESTVKVHVQSILRKLNLTSRVQAAVYAIEHGIDK	-2.79
HMTVTISPGYEGRLLRSYLKNTLSLSTSALARLKTREDGITVNGVRVTVRYVLHAGDLLQLAVD	-0.597
HMNRMKLLREQHNLSQTDLAKILNISRQSYNFYENEKRDPDTTMLIRIADFFNVSLDYLLGRTNN	-1.66
HMDAAANTLRILKALSESPMSADRLAELLMEEGSGRNPRTIRRYIRALREAGFGVEHREGRYVL	-0.381
HMEAISSESIKKMIKSYVSGEDASKPLSDQQIADLLVKEGYMISRRTVAKYRDELGILSSSKRKR	-0.0456
HMNLGVIYSLKAEVRSEPNTFSTRLFEVHEGLKVSINQLENDWVEIELLDGKTGWISNDQIRLI	-2.12
HMYDESVFTGEYHYYYEKLSDDDKLIYRQIYAMMQKRMDGISLNTTDTDNVSRIQQFVLLDNPQF	-3.04
HMQTSETVYTTDKVNVRAGADTSSDKLGSVEKGTSLTRTGTDGDWSIIDYNGTTGYIKSEYLSATAPE	0.133
HMLPYKGTVAVSLAVLHKAVGVGTADMLKAVGTLRQGTEVTVTGRNGPFAQLKNGLWMKESFLE	-1.04
HMKKGRIGSIIQYVREHPGVSSSEIITGLGLDISPATIRRDLTLLVAENKLSVEGQNKGTKYFVSPTYDMF	-0.323
HMEEITLQEQINFIKDMLLNKEKFHLTDVITKKSKIYVVSLFLALLELIRLEEINFRQTQNFSDIIISRI	-0.138
HMPQQVFKREDLQKWGLTGQADSRKRREKLGQLLGIGYGNGKQLIHRLNMFQVDRATFEQAIKQINQEEDH	-0.423
HMKVLFLESIEGSASMGEIKDVANGYARNFLFPNGFAVPATPKNLKNVEELQAKELEIQTERDNWAA	-0.0454
HMLSDFHLNHDSIVNHTVQKKETIFSLSKKYGLSINEIIKANPGIQIDKLKRRSILIIPLRKK	-1.9
HMTLSENEKIIVDTIMKYQPLHIDVLNQQVKVDFYTLLGLLTKLEMEGIVLKNPGNIYKINTL	-0.346
HMSDRESYGRYRNVSLTLSEYESLKNEYPLYADKYIERLSEYMETAGKHYNNHYATILSWLSKDIK	-0.487
HMKSNNPLDHVRVKQRGASWAYYFEKAKVDGKRRRGEGGGYATEQDARMAGVEAYNAYIGGGAK	-0.0068
HMDNMFMPPVNGWDVRQALQKLQNEMGLQVKMEYSPSETITEGYVISYTPIDGMKVEKGDEVTLVISTGPE	0.225
HMSLPKVLVPTDITVSQLAKYLEVDAIAIVKKLFGLGVVASLNQRLENEQMQLLGQEFGKDIIFTEN	-0.438
HMEEFIEHTVEKGEFLSAIIVAYNQHLKSKGFKSITTRDILNANPKLKPELIQVGQKIKIPRRKK	0.29
HMHDIPDITDLRPLRHTLGLTLAHAAQQLNTTTATISRLERGQHRNDHLATTYRTWLHTHPT	-0.15
HMQTTVHLSPEEMVIMNALKQESPIDLPILRAQVEMSNKLWDTSMKNLSKLGQLKVEKIGEQVSVSLI	-0.257

Sequence	soluble fraction (log2)
HMSTPLPTGLPRGTIIEYTVQTDETLAIIAAKFNSTVDDIMTRNKITDPNTIYAGQILKVAINLVTP	0.15
HMQDVWEPFLAKGYVFADGMLTKLIHKRGDVYKTQEIGSDKIIYVIKDGDTFAHGKTVKAAMLDLAFKKS	-1.29
HMEQNHYEVLGVSRDAIPEEIRKAYFEYARKLHPDANPDPGAAEQFMRIQTAYDVLSNPDRRHEYDGLLPP	-0.000773
HMKTKILAPIPGSIMVVDVKVGDTVKVGDRLVQLEAMKMENNITSEKAGKITAVLVTAGQKVLQNEVMIEL	-0.853
HMQVSDEGPIKAILQEVLDKSPTQLADYASGKVKLRQYFFGEAMKALKGKANPQVINKLLDEMLPPVAA	0.079
HMLEAMDSDEAAKVIEQIVNERADFVRSKGMGAIGPLMGPVMGALRGKVDGKQANELLTAAIKKLL	0.273
HMVLLGAAIRELRIQKGITIEELAEMSGLSTGLISKIERDLGNPSISSLRKISRALGVPTAFFFA	-3.07
HMPSQLPLAFARRHGVLLRGFSNGLAQLTVRPEVSTLSLAETRRHLGVPLALEKVTTERFDQLLREAYEA	-0.37
HMSTMKSKWFVSSNPIAGVMKYQAQRKKDVNAVDSSENREASGQWYTDKEEAQAIVDKLNAEEQIKEAGK	0.159
HMSHSDMEEWTDAVRSRRKKLGLTQVQIARRLGVTSHHFSQIESGRTIPSASLQIEIDRLLKNWND	-0.963
HMDAMLGEALRLIRVYHDLKQKQAAERLEVSTSYLSEIERGLKTPTLDIIQRYATVFDMPVSSIMFFSENL	-3.03
HMTQRRLQSELDSIPGVGAGTRTKLLRTLGSVDAVLRASEAELLAAGANRRQVASIQAHAAAVER	-0.0642
HMLPDHAPITMRQLAMLHVAKNKLDLTDEDYRSLLLLYGGVESSKQLNQEGLRRVLDRFKELGFEP	-0.0947
HMYMKMNDRIRSRRKELKMTQSVLAKLVGVNRVTITGWESGDYKPGGENLQALAAALEKTPQWLLDGKD	-0.996
HMSLAATLSPREIDTVRLIAVGSSNKEIARQLGIAETTVKIHVQHILRKLNLTSRVQVAVFANAEGII	-0.801
HMDEFEEGVITYFNSEKGFGFIRESKTKQSVFVHSKQLSSPVQLNDKVKFIVNKGLKGLEATEVSVI	-0.235
HMVRKGEINFDQLSVRARNALRNMNILFEKEILKLTEYDLKSIPNLGVKTTNELLSYIKRLQTNQKEE	-0.191
HMVSSAEQQARDKESGMILVQEAGGPDKARALVEKMRQDIRNPALDGTRRQMLRGHVARIELALAELETG	0.00436
HMDKNNLLIIYRTNSEGTPYAFSVTPSAKSLDALHKDAKEMLPFLEKSMNNFFSIQIWERAEYLKY	-0.643
HMSQLTVGTVVTGNASLQTQGLKLPSFASGSRPASPNIGQMIWNSSDAKAQIWNGSEWDDVG	-0.198
HMTPQNAAAVLRYLSSGAIKGVGPSTAQRIVEKFGAESLDIIQNKPEELATIRGISLSKALAVSEEYNKQY	-0.202
HMQNKYIIKQGNSGELVEVLQELLNLKQDGVFGPQTKKAVIAFQQKHKLVADGIVGPMSWRKLNFNPEELF	-2.13
HMNLIFFSENLSTFRKEKGWTQSELAEKLGVKANTISNYEKGISTPDYKIIAKLRELFEMPTDVLLYSNLS	-1.39
HMVPISGADFEKLSDYILQKAGAGSIQVKELLAGLKGMHEKNLWKAIDYLLAEEKIRIDKGGNISVK	-0.00539
HMATTIDFTVGDDVQVMNGPLESFTGKVTELNEASQKVKVDVVMFGRVTNVELDFVQVKKIT	0.162
HMFKEVPVPDVKGMTLEEAKLALEKEGFILGKTEEAESTEVAAGKIISQNLEAGKIAKQGTSVNLVVSKGK	0.24
HMQNKFLDIVGEIEVKAVDYYLLKDTSGLVIKFPKNLVFANGLKIADNKIGLTVSLYGAWVHEET	-1.17
